Columns and labels:
Assay in all cases: cell-based or functional assay
AlgW-R347A = molecular target: T1, AlgW-R347A (Pseudomonas aeruginosa, UniProt Q9HVX1 30-389, R347A)
T1 sequence: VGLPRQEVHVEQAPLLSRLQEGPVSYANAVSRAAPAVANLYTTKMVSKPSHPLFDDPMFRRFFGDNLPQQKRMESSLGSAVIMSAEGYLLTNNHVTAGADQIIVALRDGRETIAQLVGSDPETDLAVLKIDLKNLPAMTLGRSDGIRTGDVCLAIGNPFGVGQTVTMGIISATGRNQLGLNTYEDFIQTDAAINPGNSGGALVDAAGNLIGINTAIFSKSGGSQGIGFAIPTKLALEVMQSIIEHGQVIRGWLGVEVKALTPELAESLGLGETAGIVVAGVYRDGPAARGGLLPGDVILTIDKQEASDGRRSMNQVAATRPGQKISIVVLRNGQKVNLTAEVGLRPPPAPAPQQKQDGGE

[1] = molecular target: T2, soluble AlgW (residues 30 to 389, without the N-terminal transmembrane segments) (Pseudomonas aeruginosa, UniProt Q9HVX1 30-389)
T2 sequence: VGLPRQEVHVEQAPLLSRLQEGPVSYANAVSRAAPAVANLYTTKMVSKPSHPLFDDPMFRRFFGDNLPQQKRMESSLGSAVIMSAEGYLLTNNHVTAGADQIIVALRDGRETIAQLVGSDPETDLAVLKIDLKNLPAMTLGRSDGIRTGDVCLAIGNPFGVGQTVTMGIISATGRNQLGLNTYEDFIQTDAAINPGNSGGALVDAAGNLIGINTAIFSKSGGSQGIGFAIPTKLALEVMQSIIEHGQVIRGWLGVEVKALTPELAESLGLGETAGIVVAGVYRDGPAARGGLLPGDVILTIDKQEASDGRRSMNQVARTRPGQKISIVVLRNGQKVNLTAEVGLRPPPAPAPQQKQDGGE

AlgW-Y212A = molecular target: T3, AlgW-Y212A (Pseudomonas aeruginosa, UniProt Q9HVX1 30-389, Y212A)
T3 sequence: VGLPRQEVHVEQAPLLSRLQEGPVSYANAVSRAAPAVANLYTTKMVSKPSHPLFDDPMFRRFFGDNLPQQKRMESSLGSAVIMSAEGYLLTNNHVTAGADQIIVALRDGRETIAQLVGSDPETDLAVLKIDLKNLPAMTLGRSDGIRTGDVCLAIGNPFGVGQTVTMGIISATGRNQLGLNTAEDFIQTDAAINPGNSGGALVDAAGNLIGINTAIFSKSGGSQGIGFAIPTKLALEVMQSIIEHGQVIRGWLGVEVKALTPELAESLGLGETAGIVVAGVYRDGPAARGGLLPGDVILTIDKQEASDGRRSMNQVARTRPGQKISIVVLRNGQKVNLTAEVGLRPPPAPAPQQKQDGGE

AlgW-E266A = molecular target: T4, AlgW-E266A (Pseudomonas aeruginosa, UniProt Q9HVX1 30-389, E266A)
T4 sequence: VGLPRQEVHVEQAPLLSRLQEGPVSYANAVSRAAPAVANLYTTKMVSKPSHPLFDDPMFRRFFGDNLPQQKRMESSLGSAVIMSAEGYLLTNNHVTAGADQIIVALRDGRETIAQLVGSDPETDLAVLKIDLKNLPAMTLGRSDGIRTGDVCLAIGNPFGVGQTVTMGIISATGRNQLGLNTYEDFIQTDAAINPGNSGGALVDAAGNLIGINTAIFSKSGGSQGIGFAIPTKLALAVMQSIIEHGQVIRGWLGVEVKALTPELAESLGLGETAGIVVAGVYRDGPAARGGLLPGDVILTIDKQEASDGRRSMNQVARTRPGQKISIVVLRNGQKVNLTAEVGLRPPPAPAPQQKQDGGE

AlgW-V284A = molecular target: T5, AlgW-V284A (Pseudomonas aeruginosa, UniProt Q9HVX1 30-389, V284A)
T5 sequence: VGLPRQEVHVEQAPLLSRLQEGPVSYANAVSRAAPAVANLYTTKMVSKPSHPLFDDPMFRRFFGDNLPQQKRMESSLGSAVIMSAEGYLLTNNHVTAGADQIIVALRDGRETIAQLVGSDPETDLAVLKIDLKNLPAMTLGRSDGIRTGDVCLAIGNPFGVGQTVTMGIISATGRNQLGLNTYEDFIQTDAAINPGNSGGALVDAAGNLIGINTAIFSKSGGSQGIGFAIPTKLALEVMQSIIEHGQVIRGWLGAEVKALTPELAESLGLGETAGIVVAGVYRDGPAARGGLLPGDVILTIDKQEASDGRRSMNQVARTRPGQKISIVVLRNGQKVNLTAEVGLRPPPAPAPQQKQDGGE

AlgW-W281A = molecular target: T6, AlgW-W281A (Pseudomonas aeruginosa, UniProt Q9HVX1 30-389, W281A)
T6 sequence: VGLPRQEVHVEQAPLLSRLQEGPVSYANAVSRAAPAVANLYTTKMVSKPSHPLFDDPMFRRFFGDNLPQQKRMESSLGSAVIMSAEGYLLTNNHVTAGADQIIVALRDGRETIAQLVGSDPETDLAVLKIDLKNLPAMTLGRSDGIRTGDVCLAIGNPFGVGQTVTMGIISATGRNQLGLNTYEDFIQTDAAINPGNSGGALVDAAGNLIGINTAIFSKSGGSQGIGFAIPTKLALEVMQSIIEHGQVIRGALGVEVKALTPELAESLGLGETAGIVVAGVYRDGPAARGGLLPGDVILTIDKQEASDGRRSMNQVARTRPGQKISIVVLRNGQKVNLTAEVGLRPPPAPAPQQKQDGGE

AlgW-R374A = molecular target: T7, AlgW-R374A (Pseudomonas aeruginosa, UniProt Q9HVX1 30-389, R374A)
T7 sequence: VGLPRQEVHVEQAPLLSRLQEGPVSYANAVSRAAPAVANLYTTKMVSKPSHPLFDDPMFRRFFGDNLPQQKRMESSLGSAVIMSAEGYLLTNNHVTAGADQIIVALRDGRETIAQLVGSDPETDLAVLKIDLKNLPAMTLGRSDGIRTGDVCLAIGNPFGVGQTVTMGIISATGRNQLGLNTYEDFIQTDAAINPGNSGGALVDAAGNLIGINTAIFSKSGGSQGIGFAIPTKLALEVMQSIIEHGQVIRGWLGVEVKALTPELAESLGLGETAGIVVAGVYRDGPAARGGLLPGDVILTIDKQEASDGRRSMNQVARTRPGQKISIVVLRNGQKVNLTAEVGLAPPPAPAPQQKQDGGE

B1: decapeptide SVRDELRWVF (MucE C-terminal tail) (peptide)
peptide: SVRDELRWVF
notes: C-terminal decapeptide of the periplasmic protein MucE of Pseudomonas aeruginosa; also called C-terminal decapeptide of MucE
- half-maximal activation concentration of the peptide activator (cleavage of Abz-VLAG-pNA) (AlgW-R347A): 1.85 μM
- half-maximal activation concentration of the peptide activator (cleavage of Abz-VLAG-pNA) [1]: 2.02 μM
- maximal cleavage activity of peptide-activated AlgW (Abz-VLAG-pNA) [1]: 165 μM min^−1
- half-maximal activation concentration of the peptide activator (cleavage of Abz-VLAG-pNA) (AlgW-Y212A): 2.12 μM
- half-maximal activation concentration of the peptide activator (cleavage of Abz-VLAG-pNA) (AlgW-E266A): 1.08 μM
- half-maximal activation concentration of the peptide activator (cleavage of Abz-VLAG-pNA) (AlgW-V284A): 3.56 μM
- maximal cleavage activity of peptide-activated AlgW (Abz-VLAG-pNA) (AlgW-V284A): 63.1 μM min^−1
- half-maximal activation concentration of the peptide activator (cleavage of Abz-VLAG-pNA) (AlgW-W281A): 1.51 μM
- maximal cleavage activity of peptide-activated AlgW (Abz-VLAG-pNA) (AlgW-W281A): 10.3 μM min^−1
- maximal cleavage activity of peptide-activated AlgW (Abz-VLAG-pNA) (AlgW-R374A): 5.45 μM min^−1

From PMC8545111, “Molecular Basis of the Versatile Regulatory Mechanism of HtrA-Type Protease AlgW from Pseudomonas aeruginosa” (mBio, 2021)
